Test results published in the supplement of paper PMC10567573.

B1: SNAP91 (parent)
chain: FAAPSPATTASPAKVDSSGVIDLF

Variants of: B1
Assay: protein stability index of a GFP-peptide fusion (GPS, HEK-293T) (PSI 1-6); higher = more stable
Conditions: c terminus: a fixed tail appended
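Note: lentivirally expressed fusions sorted by FACS into six bins by GFP to DsRed ratio, PSI derived from sequencing read proportions per bin multiplied by bin number.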

Protein stability index of substitutions, site by site:
D16: P 2.19; C 1.54; R 2.03; F 1.68; Y 1.53; T 2.54; L 2.6; E 2.17; W 1.46; I 1.99; S 1.91; G 2.11; H 2.82; N 2.53; A 1.9; K 2.17; Q 1.9; M 1.92; V 2.3
I21: L 2.65; V 3.22; M 3.15; P 2.8; F 2.25; Q 3.05; T 3.07; C 2.63; K 3.79; E 3.96; N 4.12; S 3.37; H 2.51; W 1.88; D 3.96; R 3.23; Y 2.11; A 2.49; G 3.64
L23: E 4.4; Q 4.46; H 4.27; Y 3.2; W 2.55; V 2.83; S 4.11; C 2.79; P 3.74; I 2.51; K 4.12; F 2.29; G 3.51; A 3.78; D 4.69; R 3.76; N 4.14; M 3.25; T 3.74
S17: A 2.55; N 2.78; G 2.33; F 2.21; Q 2.52; T 2.43; I 1.7; D 2.55; W 1.63; R 2.27; E 2.45; M 2.16; H 2.71; K 2.29; C 1.86; L 1.96; Y 2.7; P 2.39; V 2.17
V15: S 2.93; Y 1.98; I 2.24; H 2.32; K 2.92; N 2.52; W 2.1; T 2.82; G 2.41; L 2.23; R 2.6; Q 2.04; M 2.56; P 2.65
G19: C 1.83; V 2.07; I 1.41; W 1.55; Q 2.69; N 2.59; K 2.38; E 2.84; Y 1.58; M 1.92; P 2.06; D 2.94; A 2.56; F 1.26; L 2.24; H 2.4; S 2.58; T 2.57; R 2.44
V20: W 1.54; D 3.22; R 2.63; K 2.78; Y 2.07; M 2.5; G 2.77; P 2.79; T 2.51; C 2.08; F 1.56; L 2.57; S 2.43; E 3.42; N 2.77; A 2.45; H 2.72; Q 2.96; I 2.25
D22: L 2.57; H 1.94; Q 2.26; F 2.93; T 1.73; R 1.87; Y 2.04; A 2.03; P 2.68; S 1.76; N 2.24; G 1.75; M 2.81; K 2.11; E 2.46; V 1.75
S18: Q 2.49; G 2.56; H 2.12; A 2.29; L 2.23; W 1.37; E 2.72; V 2.1; Y 1.66; R 2.11; T 2.49; D 2.97; C 2.1; I 1.9; K 2.46; N 2.43; P 2.83; F 1.67; M 2.06
F24: A 4.03; E 4.51; D 4.54; G 4.35
